From patent publication US20140105889A1 (published 2014)

T1: human FcγRIIa type H (human, UniProt P12318 36-217)
T1 construct: also called FcgRIIaH; FcγRIIa(H)
T1 sequence: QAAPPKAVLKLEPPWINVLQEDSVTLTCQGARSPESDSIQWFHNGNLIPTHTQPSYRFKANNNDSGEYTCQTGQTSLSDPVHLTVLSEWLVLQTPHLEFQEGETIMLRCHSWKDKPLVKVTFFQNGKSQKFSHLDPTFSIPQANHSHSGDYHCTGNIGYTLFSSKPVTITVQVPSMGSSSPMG

T2: human FcγRIIb (human, UniProt P31994 43-217, limits assumed)
T2 construct: also called FcgRIIb; FcγIIB
T2 sequence: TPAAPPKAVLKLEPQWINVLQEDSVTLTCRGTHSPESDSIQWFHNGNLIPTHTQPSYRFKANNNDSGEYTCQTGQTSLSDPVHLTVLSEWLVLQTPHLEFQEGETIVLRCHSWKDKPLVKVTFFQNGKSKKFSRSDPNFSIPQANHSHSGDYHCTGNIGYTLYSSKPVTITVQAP

T3: human FcγRIIb (human, UniProt P31994 43-217)
T3 construct: also called FcγIIB
T3 sequence: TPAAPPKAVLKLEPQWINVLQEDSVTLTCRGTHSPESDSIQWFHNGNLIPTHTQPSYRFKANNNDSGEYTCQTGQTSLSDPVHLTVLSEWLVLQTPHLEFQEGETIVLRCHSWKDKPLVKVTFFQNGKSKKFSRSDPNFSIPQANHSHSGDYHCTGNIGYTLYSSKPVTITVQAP


Legend:
human FcγRIa = target: T4, human FcγRIa (human, UniProt P12314 16-292, limits assumed); experiment: SPR (Biacore); binding amount divided by that of control IL6R-BF648/IL6R-L, x100
T4 construct: also called FcgRIa; CD64
Description: (§1) According to the following method, relative binding activities were calculated for the results of analyzing interactions with the respective FcγRs.

human FcγRIIa type H = target: T1, human FcγRIIa type H; experiment: as above
Description: as §1

human FcγRIIb [1] = target: T2, human FcγRIIb; experiment: as above
Description: as §1

human FcγRIIIa type V = target: T5, human FcγRIIIa type V (human, UniProt P08637 17-208, limits assumed); experiment: as above
T5 construct: The assay used allotype V158; also called FcgRIIIaV; FcγRIIIa(V)
Description: as §1

[2] = target: T6, human FcγRIIIa type V (allotype V158) (human, UniProt P08637 17-208, limits assumed); experiment: SPR (Biacore), antibody captured on the chip, FcγR as analyte
T6 construct: the assay used allotype V158; also called FcγRIIIaV; FcγRIIIa(V)

human FcγRIIb [3] = target: T3, human FcγRIIb; experiment: SPR (Biacore); KD of parent IL6R-B3/IL6R-L for FcγRIIb divided by KD of the variant for FcγRIIb
Excerpt: Furthermore, KD(IIaR)/KD(IIb) and KD(IIaH)/KD(IIb) in the table respectively represent the value obtained by dividing the KD value of each variant for FcγRIIaR by the KD value of each variant for FcγRIIb, and the value obtained by dividing the KD value of each variant for FcγRIIaH by the KD value of each variant for FcγRIIb.

T6 sequence (P08637 other isoform, or with tags, fused parts or gaps limits assumed): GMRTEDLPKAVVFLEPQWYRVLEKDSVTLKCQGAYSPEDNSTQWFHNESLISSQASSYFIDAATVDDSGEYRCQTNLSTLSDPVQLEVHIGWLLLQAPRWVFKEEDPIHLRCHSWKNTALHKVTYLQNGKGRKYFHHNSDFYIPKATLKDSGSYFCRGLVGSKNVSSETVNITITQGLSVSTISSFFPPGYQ
T5 sequence (P08637 other isoform, or with tags, fused parts or gaps limits assumed): as above
T4 sequence (P12314 16-292 limits assumed): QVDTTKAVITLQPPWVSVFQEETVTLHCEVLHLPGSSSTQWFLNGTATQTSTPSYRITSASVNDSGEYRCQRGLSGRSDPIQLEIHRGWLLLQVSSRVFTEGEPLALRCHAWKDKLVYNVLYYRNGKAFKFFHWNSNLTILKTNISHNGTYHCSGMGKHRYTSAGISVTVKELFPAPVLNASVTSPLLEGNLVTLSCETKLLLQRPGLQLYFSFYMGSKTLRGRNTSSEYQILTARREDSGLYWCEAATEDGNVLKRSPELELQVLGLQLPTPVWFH

relative binding activity (human FcγRIa)	relative binding activity (human FcγRIIa type H)	relative binding activity (human FcγRIIb [1])	relative binding activity (human FcγRIIIa type V)	Kd [2] [µM]	KD(IIb) of the parent polypeptide/KD(IIb) of the altered polypeptide (human FcγRIIb [3])	Binder
81 % of IL6R-BF648/IL6R-L	310 % of IL6R-BF648/IL6R-L	188 % of IL6R-BF648/IL6R-L	118 % of IL6R-BF648/IL6R-L			IL6R-BP208/IL6R-L (antibody, human IgG1, The common L chain is IL6R-L; copies: 2 + 2) heavy: QVQLQESGPGLVKPSETLSLTCAVSGHSISHDHAWSWVRQPPGEGLEWIGFISYSGITNYNPSLQGRVTISRDNSKNTLYLQMNSLRAEDTAVYYCARSLARTTAMDYWGEGTLVTVSSASTKGPSVFPLAPSSKSTSGGTAALGCLVKDYFPEPVTVSWNSGALTSGVHTFPAVLQSSGLYSLSSVVTVPSSSLGTQTYICNVNHKPSNTKVDKKVEPKSCDKTHTCPPCPAPDLLGDDSVFLFPPKPKDTLMISRTPEVTCVVVDVSDEDGEVKFNWYVDGVEVHNAKTKPREEQYNSTYRVVSVLTVLHQDWLNGKEYKCKVSNKALPRPIEKTISKAKGQPREPQVYTLPPSRDELTKNQVSLTCLVKGFYPSDIAVEWESNGQPENNYKTTPPVLDSDGSFFLYSKLTVDKSRWQQGNVFSCSVMHEALHNHYTQESLSLSP light: DIQMTQSPSSLSASVGDRVTITCRASQDISSYLNWYQQKPGKAPKLLIYYTSRLHSGVPSRFSGSGSGTDFTFTISSLQPEDIATYYCQQGNTLPYTFGQGTKVEIK
68 % of IL6R-BF648/IL6R-L	267 % of IL6R-BF648/IL6R-L	186 % of IL6R-BF648/IL6R-L	153 % of IL6R-BF648/IL6R-L			IL6R-BP209/IL6R-L (antibody, human IgG1, The common L chain is IL6R-L; copies: 2 + 2) heavy: QVQLQESGPGLVKPSETLSLTCAVSGHSISHDHAWSWVRQPPGEGLEWIGFISYSGITNYNPSLQGRVTISRDNSKNTLYLQMNSLRAEDTAVYYCARSLARTTAMDYWGEGTLVTVSSASTKGPSVFPLAPSSKSTSGGTAALGCLVKDYFPEPVTVSWNSGALTSGVHTFPAVLQSSGLYSLSSVVTVPSSSLGTQTYICNVNHKPSNTKVDKKVEPKSCDKTHTCPPCPAPELLGDDSVFLFPPKPKDTLMISRTPEVTCVVVDVSDEDGEVKFNWYVDGVEVHNAKTKPREEQYNSTYRVVSVLTVLHQDWLNGKEYKCKVSNAALPRPIEKTISKAKGQPREPQVYTLPPSRDELTKNQVSLTCLVKGFYPSDIAVEWESNGQPENNYKTTPPVLDSDGSFFLYSKLTVDKSRWQQGNVFSCSVMHEALHNHYTQESLSLSP light: DIQMTQSPSSLSASVGDRVTITCRASQDISSYLNWYQQKPGKAPKLLIYYTSRLHSGVPSRFSGSGSGTDFTFTISSLQPEDIATYYCQQGNTLPYTFGQGTKVEIK
				56	1.7	IL6R-BP187/IL6R-L (antibody, human IgG1, Anti-human IL-6 receptor human IgG1 variant; copies: 2 + 2) heavy: QVQLQESGPGLVKPSETLSLTCAVSGHSISHDHAWSWVRQPPGEGLEWIGFISYSGITNYNPSLQGRVTISRDNSKNTLYLQMNSLRAEDTAVYYCARSLARTTAMDYWGEGTLVTVSSASTKGPSVFPLAPSSKSTSGGTAALGCLVKDYFPEPVTVSWNSGALTSGVHTFPAVLQSSGLYSLSSVVTVPSSSLGTQTYICNVNHKPSNTKVDKKVEPKSCDKTHTCPPCPAPEYLGGDSVFLFPPKPKDTLMISRTPEVTCVVVDVSHEDGEVKFNWYVDGVEVHNAKTKPREEQYNSTYRVVSVLTVLHQDWLNGKEYKCKVSNAALPKPIEKTISKAKGQPREPQVYTLPPSRDELTKNQVSLTCLVKGFYPSDIAVEWESNGQPENNYKTTPPVLDSDGSFFLYSKLTVDKSRWQQGNVFSCSVMHEALHNHYTQESLSLSP light: DIQMTQSPSSLSASVGDRVTITCRASQDISSYLNWYQQKPGKAPKLLIYYTSRLHSGVPSRFSGSGSGTDFTFTISSLQPEDIATYYCQQGNTLPYTFGQGTKVEIK
				56	12.9	IL6R-BP183/IL6R-L (antibody, human IgG1, Anti-human IL-6 receptor human IgG1 variant; copies: 2 + 2) heavy: QVQLQESGPGLVKPSETLSLTCAVSGHSISHDHAWSWVRQPPGEGLEWIGFISYSGITNYNPSLQGRVTISRDNSKNTLYLQMNSLRAEDTAVYYCARSLARTTAMDYWGEGTLVTVSSASTKGPSVFPLAPSSKSTSGGTAALGCLVKDYFPEPVTVSWNSGALTSGVHTFPAVLQSSGLYSLSSVVTVPSSSLGTQTYICNVNHKPSNTKVDKKVEPKSCDKTHTCPPCPAPDYLGGDSVFLFPPKPKDTLMISRTPEVTCVVVDVSHEDGEVKFNWYVDGVEVHNAKTKPREEQYNSTYRVVSVLTVLHQDWLNGKEYKCKVSNAALPKPIEKTISKAKGQPREPQVYTLPPSRDELTKNQVSLTCLVKGFYPSDIAVEWESNGQPENNYKTTPPVLDSDGSFFLYSKLTVDKSRWQQGNVFSCSVMHEALHNHYTQESLSLSP light: DIQMTQSPSSLSASVGDRVTITCRASQDISSYLNWYQQKPGKAPKLLIYYTSRLHSGVPSRFSGSGSGTDFTFTISSLQPEDIATYYCQQGNTLPYTFGQGTKVEIK
117 % of IL6R-BF648/IL6R-L	135 % of IL6R-BF648/IL6R-L	173 % of IL6R-BF648/IL6R-L	122 % of IL6R-BF648/IL6R-L			IL6R-BP212/IL6R-L (antibody, human IgG1, The common L chain is IL6R-L; copies: 2 + 2) heavy: QVQLQESGPGLVKPSETLSLTCAVSGHSISHDHAWSWVRQPPGEGLEWIGFISYSGITNYNPSLQGRVTISRDNSKNTLYLQMNSLRAEDTAVYYCARSLARTTAMDYWGEGTLVTVSSASTKGPSVFPLAPSSKSTSGGTAALGCLVKDYFPEPVTVSWNSGALTSGVHTFPAVLQSSGLYSLSSVVTVPSSSLGTQTYICNVNHKPSNTKVDKKVEPKSCDKTHTCPPCPAPDLLGGDSVFLFPPKPKDTLMISRTPEVTCVVVDVSDEDGEVKFNWYVDGVEVHNAKTKPREEQDNSTYRVVSVLTVLHQDWLNGKEYKCKVSNKALPRPIEKTISKAKGQPREPQVYTLPPSRDELTKNQVSLTCLVKGFYPSDIAVEWESNGQPENNYKTTPPVLDSDGSFFLYSKLTVDKSRWQQGNVFSCSVMHEALHNHYTQESLSLSP light: DIQMTQSPSSLSASVGDRVTITCRASQDISSYLNWYQQKPGKAPKLLIYYTSRLHSGVPSRFSGSGSGTDFTFTISSLQPEDIATYYCQQGNTLPYTFGQGTKVEIK
				49	50.7	IL6R-BP186/IL6R-L (antibody, human IgG1, Anti-human IL-6 receptor human IgG1 variant; copies: 2 + 2) heavy: QVQLQESGPGLVKPSETLSLTCAVSGHSISHDHAWSWVRQPPGEGLEWIGFISYSGITNYNPSLQGRVTISRDNSKNTLYLQMNSLRAEDTAVYYCARSLARTTAMDYWGEGTLVTVSSASTKGPSVFPLAPSSKSTSGGTAALGCLVKDYFPEPVTVSWNSGALTSGVHTFPAVLQSSGLYSLSSVVTVPSSSLGTQTYICNVNHKPSNTKVDKKVEPKSCDKTHTCPPCPAPDYLGDDSVFLFPPKPKDTLMISRTPEVTCVVVDVSHEDGEVKFNWYVDGVEVHNAKTKPREEQDNSTYRVVSVLTVLHQDWLNGKEYKCKVSNAALPKPIEKTISKAKGQPREPQVYTLPPSRDELTKNQVSLTCLVKGFYPSDIAVEWESNGQPENNYKTTPPVLDSDGSFFLYSKLTVDKSRWQQGNVFSCSVMHEALHNHYTQESLSLSP light: DIQMTQSPSSLSASVGDRVTITCRASQDISSYLNWYQQKPGKAPKLLIYYTSRLHSGVPSRFSGSGSGTDFTFTISSLQPEDIATYYCQQGNTLPYTFGQGTKVEIK
				68	87.6	IL6R-BP188/IL6R-L (antibody, human IgG1, Anti-human IL-6 receptor human IgG1 variant; copies: 2 + 2) heavy: QVQLQESGPGLVKPSETLSLTCAVSGHSISHDHAWSWVRQPPGEGLEWIGFISYSGITNYNPSLQGRVTISRDNSKNTLYLQMNSLRAEDTAVYYCARSLARTTAMDYWGEGTLVTVSSASTKGPSVFPLAPSSKSTSGGTAALGCLVKDYFPEPVTVSWNSGALTSGVHTFPAVLQSSGLYSLSSVVTVPSSSLGTQTYICNVNHKPSNTKVDKKVEPKSCDKTHTCPPCPAPDLLGDDSVFLFPPKPKDTLMISRTPEVTCVVVDVSDEDGEVKFNWYVDGVEVHNAKTKPREEQYNSTYRVVSVLTVLHQDWLNGKEYKCKVSNKALPKPIEKTISKAKGQPREPQVYTLPPSRDELTKNQVSLTCLVKGFYPSDIAVEWESNGQPENNYKTTPPVLDSDGSFFLYSKLTVDKSRWQQGNVFSCSVMHEALHNHYTQESLSLSP light: DIQMTQSPSSLSASVGDRVTITCRASQDISSYLNWYQQKPGKAPKLLIYYTSRLHSGVPSRFSGSGSGTDFTFTISSLQPEDIATYYCQQGNTLPYTFGQGTKVEIK
